According to paper PMC3563642, “MERTK Interactions with SH2-Domain Proteins in the Retinal Pigment Epithelium” (PLoS ONE, 2013):

T1: 6xHis-rMERTK(571–999), full-length human MERTK cytoplasmic domain (human, UniProt Q12866 571-999, autophosphorylated on tyrosine (incubated with ATP/MgCl2); sites Y749, Y753, Y754 were mapped on rMERTK571–864, not on this construct)
T1 construct: Expressed from the pET28a-LIC vector; also called MERTK intracellular domain; source: E. coli BL21 DE3 Gold, purified (Ni2+-NTA, Sephacryl S-200 HR), autophosphorylated with 10 mM ATP, 10 mM MgCl2
T1 sequence (looked up): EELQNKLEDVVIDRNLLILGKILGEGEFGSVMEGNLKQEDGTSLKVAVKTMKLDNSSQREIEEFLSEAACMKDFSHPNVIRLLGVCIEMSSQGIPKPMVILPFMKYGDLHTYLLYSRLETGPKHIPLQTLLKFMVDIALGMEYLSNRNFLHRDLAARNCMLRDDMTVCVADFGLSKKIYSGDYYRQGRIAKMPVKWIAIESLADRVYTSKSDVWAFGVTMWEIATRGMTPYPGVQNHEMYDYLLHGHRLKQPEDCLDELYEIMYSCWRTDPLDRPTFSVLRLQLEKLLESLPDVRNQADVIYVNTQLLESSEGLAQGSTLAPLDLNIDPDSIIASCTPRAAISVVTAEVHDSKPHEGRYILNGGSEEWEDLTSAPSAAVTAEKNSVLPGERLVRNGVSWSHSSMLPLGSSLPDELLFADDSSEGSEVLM


The binders below were run against T1, 6xHis-rMERTK(571–999), full-length … (assay: pull-down; Ni2+-NTA pull down: GST-rSH2-domain protein (10 µg) incubated with autophosphorylated 6xHis-rMERTK571–999 (10 µg) in 50 mM NaH2PO4, 300 mM NaCl, 10 mM imidazole, 0.1 µM PMSF, 1 h at 4°C, then Ni2+-NTA resin 0.5 h; washes with 50 mM imidazole, elution with 500 mM imidazole; Coomassie-stained SDS gels; negative control omits rMERTK). Settings: both partners purified.

| Binder | binding result |
| --- | --- |
| VAV1 GST-SH2 domain fusion protein (domain or fragment, human, UniProt P15498 671-765, looked up, pGEX2T construct from a library of SH2 domains; also called rSH2-domain fusion protein corresponding to VAV1; source: E. coli BL21 DE3 Gold, purified (glutathione-agarose, Sephacryl S-200 HR)) WYAGPMERAGAESILANRSDGTFLVRQRVKDAAEFAISIKYNVEVKHIKIMTAEGLYRITEKKAFRGLTELVEFYQQNSLKDCFKSLDTTLQFPF | binds |
| HCK GST-SH2 domain fusion protein (domain or fragment, human, UniProt P08631 144-241, looked up, pGEX2T construct from a library of SH2 domains; also called rSH2-domain fusion protein corresponding to HCK; source: E. coli BL21 DE3 Gold, purified (glutathione-agarose, Sephacryl S-200 HR)) WFFKGISRKDAERQLLAPGNMLGSFMIRDSETTKGSYSLSVRDYDPRQGDTVKHYKIRTLDNGGFYISPRSTFSTLQELVDHYKKGNDGLCQKLSVPC | binds |
| VAV3 GST-SH2 domain fusion protein (domain or fragment, human, UniProt Q9UKW4 672-766, looked up, pGEX2T construct from a library of SH2 domains; also called rSH2-domain fusion protein corresponding to VAV3; source: E. coli BL21 DE3 Gold, purified (glutathione-agarose, Sephacryl S-200 HR)) WYAGAMERLQAETELINRVNSTYLVRHRTKESGEYAISIKYNNEAKHIKILTRDGFFHIAENRKFKSLMELVEYYKHHSLKEGFRTLDTTLQFPY | binds |
